For assay [1], the target named is T1, GatB, subunit B of the aminoacyl-tRNA amidotransferase complex GatCAB (Arabidopsis, UniProt Q9FV81 60-550).
T1 sequence: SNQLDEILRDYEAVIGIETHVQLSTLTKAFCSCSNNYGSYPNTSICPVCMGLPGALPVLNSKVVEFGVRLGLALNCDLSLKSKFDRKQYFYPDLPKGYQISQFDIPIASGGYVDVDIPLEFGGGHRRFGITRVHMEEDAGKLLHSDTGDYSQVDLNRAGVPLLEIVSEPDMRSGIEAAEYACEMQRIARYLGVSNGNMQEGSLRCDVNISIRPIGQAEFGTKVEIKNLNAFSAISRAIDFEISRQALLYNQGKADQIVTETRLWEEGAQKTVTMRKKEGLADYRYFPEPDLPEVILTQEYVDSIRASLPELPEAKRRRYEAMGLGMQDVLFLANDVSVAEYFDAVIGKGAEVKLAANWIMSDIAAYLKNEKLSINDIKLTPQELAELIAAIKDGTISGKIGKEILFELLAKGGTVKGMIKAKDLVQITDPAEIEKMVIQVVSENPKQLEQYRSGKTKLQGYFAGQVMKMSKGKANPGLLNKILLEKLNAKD
In words: SEC. For orientation: Size exclusion chromatography separates by hydrodynamic size, large species first.

The target in assay [2] is T2, GatA, subunit A of the aminoacyl-tRNA amidotransferase complex GatCAB (Arabidopsis, UniProt Q9LI77 45-537).
T2 sequence: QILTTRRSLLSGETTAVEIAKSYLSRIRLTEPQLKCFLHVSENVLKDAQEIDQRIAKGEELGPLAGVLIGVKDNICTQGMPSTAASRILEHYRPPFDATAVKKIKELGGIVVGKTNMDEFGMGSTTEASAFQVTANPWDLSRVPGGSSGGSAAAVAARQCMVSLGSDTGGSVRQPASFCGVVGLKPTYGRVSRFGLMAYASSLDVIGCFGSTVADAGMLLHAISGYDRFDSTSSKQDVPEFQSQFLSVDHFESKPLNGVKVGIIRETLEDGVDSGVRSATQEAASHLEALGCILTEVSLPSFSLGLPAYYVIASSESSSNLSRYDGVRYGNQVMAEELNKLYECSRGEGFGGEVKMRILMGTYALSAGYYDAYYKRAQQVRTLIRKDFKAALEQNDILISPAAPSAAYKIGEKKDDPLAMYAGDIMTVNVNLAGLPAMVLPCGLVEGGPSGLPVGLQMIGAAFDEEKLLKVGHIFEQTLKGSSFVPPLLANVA
Description: SEC.

We go through one molecule from paper doi:10.1101/2025.03.07.642005 (bioRxiv, 2025).

B1: GatC, subunit C of the aminoacyl-tRNA amidotransferase complex GatCAB (natural protein)
chain: RSYSSDSDSSVLQPPDVARLAQTARISLTPAEIEECETKIRRVIDWFGQLQQVDVNSVEPAIRAEMDGGNLREDAPETFDNRDSIRASIPSFEDAYLKVPKILNKE
Consider B1, for which the binding result in assay [1] and in assay [2] was “binds” throughout.
